Experimental data published in patent US20220275067A1 (PROTHENA BIOSCIENCES, published 2022).
Substitutions are numbered along the chain they refer to. One block for each binder: values may come before it.

Legend:
[1] = biological target: pHrodo-labeled tau P301L soluble oligomer, P10636; experiment: cell-based or functional assay
[2] = biological target: T1, recombinant human 4R0N tau (human, UniProt P10636 2-758); experiment: SPR Biacore T200; antibody captured by anti-human Fc; tau as analyte; global 1:1 fit
T1 construct: also called recombinant 4R0N human tau; P10636-6
Experimental: Target binding analysis was performed using a Biacore T200 to compare the binding affinity of humanized 9F5 variants to recombinant human 4R0N tau. Anti-Human Fc antibody was immobilized on sensor chip CM3 via amine coupling, and humanized 9F5 variants were captured to equivalent levels. Various concentrations of recombinant 4R0N human tau (ranging from 0.02 nM to 12.5 nM) were passed over the captured ligand at 50 μL/min in running buffer (HBS+0.05% P-20, 1 mg/mL BSA) for 180 seconds association/420 seconds dissociation as a single cycle. Data was blank subtracted to both an irrelevant sensor not containing antibody and 0 nM analyte concentration. Analysis was performed using a global 1:1 fit with Biacore Evaluation software.

pHrodo-labeled tau P301L soluble oligomer, P10636, sequence (P10636 other isoform, or with tags, fused parts or gaps P301L P301L): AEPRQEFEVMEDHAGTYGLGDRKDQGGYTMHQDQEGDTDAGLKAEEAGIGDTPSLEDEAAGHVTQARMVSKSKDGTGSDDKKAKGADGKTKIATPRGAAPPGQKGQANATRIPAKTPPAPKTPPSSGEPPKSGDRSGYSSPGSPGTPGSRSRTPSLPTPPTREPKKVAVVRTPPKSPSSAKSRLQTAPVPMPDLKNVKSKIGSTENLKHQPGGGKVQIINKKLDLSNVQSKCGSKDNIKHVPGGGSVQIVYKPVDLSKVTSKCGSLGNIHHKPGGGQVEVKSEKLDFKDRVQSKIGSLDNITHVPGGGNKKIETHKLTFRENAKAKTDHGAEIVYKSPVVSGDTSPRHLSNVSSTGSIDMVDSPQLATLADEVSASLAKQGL
T1 sequence (P10636 other isoform, or with tags, fused parts or gaps limits assumed): as the sequence (P10636 other isoform, or with tags, fused parts or gaps P301L P301L) above

internalized pHrodo-tau in B103 cells (FACS), antibody at 0.061 µg/mL (% of maximum signal) [1]: 79.7
internalized pHrodo-tau in B103 cells (FACS), antibody at 0.244 µg/mL (% of maximum signal) [1]: 66
internalized pHrodo-tau in B103 cells (FACS), antibody at 0.98 µg/mL (% of maximum signal) [1]: 67.8
internalized pHrodo-tau in B103 cells (FACS), antibody at 3.9 µg/mL (% of maximum signal) [1]: 63.1
internalized pHrodo-tau in B103 cells (FACS), antibody at 15.625 µg/mL (% of maximum signal) [1]: 53.2
internalized pHrodo-tau in B103 cells (FACS), antibody at 62.5 µg/mL (% of maximum signal) [1]: 48.4
B1: mouse 14H3 antibody (antibody, mouse IgG2a, V domains shown)
VH: QVTLKESGPGILQPSQTLSLTCSFSGFSLSTYGMGVGWIRQPSGKGLEWLANIWWDDIKYYNAALKSRLTISKDTSKNQVFLKIASVDTADTATYYCARNVDYWGQGTTLTVSS
VL: DVVMTQTPLSLPVSLGDQASISCRSSQSLVHSNGNTFLHWYLQKPGQSPKLLIYKVSNRFSGVPDRFSGSGSGTDFTLKISRVEAEDLGVYFCSQSTLVPWTFGGGTKLEIK
modifications: here or on the partner: pHrodo label

internalized pHrodo-tau in B103 cells (FACS), antibody at 0.061 µg/mL (% of maximum signal) [1]: 78.1
internalized pHrodo-tau in B103 cells (FACS), antibody at 0.244 µg/mL (% of maximum signal) [1]: 71.7
internalized pHrodo-tau in B103 cells (FACS), antibody at 0.98 µg/mL (% of maximum signal) [1]: 71
internalized pHrodo-tau in B103 cells (FACS), antibody at 3.9 µg/mL (% of maximum signal) [1]: 35.9
internalized pHrodo-tau in B103 cells (FACS), antibody at 15.625 µg/mL (% of maximum signal) [1]: 24.2
internalized pHrodo-tau in B103 cells (FACS), antibody at 62.5 µg/mL (% of maximum signal) [1]: 18.1
B2: mouse 9F5 antibody (antibody, mouse IgG1, V domains shown)
VH: EVQLQQSGAELVRPGASVKLSCTASGFNIKDDYMNWVKQRPERGLEWIGWIDPENGDTEYASKFQGKATMTADTSSNTAYLQFSSLTSEDTAVYYCTTSNGWGQGTLVTVST
VL: DIVMTQAAFSNPVTLGTSASISCRSSKSLLHSNGITYLYWYLQKPGQSPQLLIYQMSNLASGVPDRFSSSGSGTDFTLRISRVEAEDVGVYYCAQNLELPLTFGAGTKLELK
modifications: here or on the partner: pHrodo label

internalized pHrodo-tau in B103 cells (FACS), antibody at 0.061 µg/mL (% of maximum signal) [1]: 71.5
internalized pHrodo-tau in B103 cells (FACS), antibody at 0.244 µg/mL (% of maximum signal) [1]: 79.5
internalized pHrodo-tau in B103 cells (FACS), antibody at 0.98 µg/mL (% of maximum signal) [1]: 62.7
internalized pHrodo-tau in B103 cells (FACS), antibody at 3.9 µg/mL (% of maximum signal) [1]: 43
internalized pHrodo-tau in B103 cells (FACS), antibody at 15.625 µg/mL (% of maximum signal) [1]: 28.6
internalized pHrodo-tau in B103 cells (FACS), antibody at 62.5 µg/mL (% of maximum signal) [1]: 28.4
B3: mouse 2D11 antibody (antibody, mouse IgG2a, V domains shown)
VH: B2 VH
VL: B2 VL
modifications: here or on the partner: pHrodo label

internalized pHrodo-tau in B103 cells (FACS), antibody at 0.061 µg/mL (% of maximum signal) [1]: 79.8
internalized pHrodo-tau in B103 cells (FACS), antibody at 0.244 µg/mL (% of maximum signal) [1]: 78.6
internalized pHrodo-tau in B103 cells (FACS), antibody at 0.98 µg/mL (% of maximum signal) [1]: 63.9
internalized pHrodo-tau in B103 cells (FACS), antibody at 3.9 µg/mL (% of maximum signal) [1]: 36.8
internalized pHrodo-tau in B103 cells (FACS), antibody at 15.625 µg/mL (% of maximum signal) [1]: 32.4
internalized pHrodo-tau in B103 cells (FACS), antibody at 62.5 µg/mL (% of maximum signal) [1]: 30.6
B4: mouse 17C12 antibody (antibody, mouse IgG2a, V domains shown)
VH: B2 VH with E1K, V2I, G26A, E59K, F83L, T112A
VL: DVVMTQTPLTLSVTIGQPASISCTSSQSLLHSNRKTYLHWLLQRPGQSPKLLIYLVSKLESGVPDRFSGSGSGTDFTLKISRVEAEDLGVYYCLQTTHFPRTFGGGTKLEIK
modifications: here or on the partner: pHrodo label

internalized pHrodo-tau in B103 cells (FACS), antibody at 0.061 µg/mL (% of maximum signal) [1]: 86.7
internalized pHrodo-tau in B103 cells (FACS), antibody at 0.244 µg/mL (% of maximum signal) [1]: 9.09
internalized pHrodo-tau in B103 cells (FACS), antibody at 0.98 µg/mL (% of maximum signal) [1]: 90.5
internalized pHrodo-tau in B103 cells (FACS), antibody at 3.9 µg/mL (% of maximum signal) [1]: 55.2
internalized pHrodo-tau in B103 cells (FACS), antibody at 15.625 µg/mL (% of maximum signal) [1]: 38.9
internalized pHrodo-tau in B103 cells (FACS), antibody at 62.5 µg/mL (% of maximum signal) [1]: 34.5
B5: mouse 10C12 antibody (antibody, mouse IgG2a, V domains shown)
VH: B2 VH
VL: B2 VL
modifications: here or on the partner: pHrodo label

Kd [2]: 0.597 nM
koff [2]: 0.00215 s⁻¹
kon [2]: 3.61e+06 M⁻¹ s⁻¹
B6: hu9F5VHv9/hu9F5VLv8_DIM19 (antibody, V domains shown)
VH: EVQLVQSGAEVKKPGATVKISCKASGFNIKDDYMNWVQQRPGKGLEWIGWIDPENGDTEYASKFQGRATMTADTSTNTAYMELSSLRSEDTAVYYCTTSNGWGQGTLVTVSS
VL: DIQMTQSPFSLPVTPGESASISCRSSKSLSHSNGITYLYWYIQKPGQSPQLLIYQISNRASGVPNRFSSSGSGTDFTLKISRVEAEDVGVYYCAQNIELPLTFGQGTKLEIK

Kd [2]: 0.508 nM
koff [2]: 0.00116 s⁻¹
kon [2]: 2.28e+06 M⁻¹ s⁻¹
B7: hu9F5VHv10/hu9F5VLv9_DIM13 (antibody, V domains shown)
VH: B6 VH with Q38K, G42E
VL: B6 VL with S30G, I42G, I56G, N65D, I97L

Kd [2]: 0.454 nM
koff [2]: 0.000993 s⁻¹
kon [2]: 2.19e+06 M⁻¹ s⁻¹
B8: hu9F5VHv9/hu9F5VLv8_DIM24 (antibody, V domains shown)
VH: B6 VH
VL: B6 VL with S30G, I56E

Kd [2]: 0.0692 nM
koff [2]: 0.000217 s⁻¹
kon [2]: 3.13e+06 M⁻¹ s⁻¹
B9: hu9F5VHv9/hu9F5VLv8_DIM28 (antibody, V domains shown)
VH: B6 VH
VL: B6 VL with I42L, I56G

Kd [2]: 0.27 nM
koff [2]: 0.000534 s⁻¹
kon [2]: 1.98e+06 M⁻¹ s⁻¹
B10: hu9F5VHv9/hu9F5VLv8_DIM29 (antibody, V domains shown)
VH: B6 VH
VL: B6 VL with I42Q, I56M

Kd [2]: 0.438 nM
koff [2]: 0.000447 s⁻¹
kon [2]: 1.02e+06 M⁻¹ s⁻¹
B11: hu9F5VHv9/hu9F5VLv8_DIM30 (antibody, V domains shown)
VH: B6 VH
VL: B6 VL with I42Q, I56G, R59L

Kd [2]: 0.163 nM
koff [2]: 0.000287 s⁻¹
kon [2]: 1.76e+06 M⁻¹ s⁻¹
B12: hu9F5VHv10/hu9F5VLv9_DIM11 (antibody, V domains shown)
VH: B6 VH with Q38K, G42E
VL: B6 VL with S30G, I42G, I56G, N65D
notes: also called H10L9-DIM11; H10L9DIM11

Kd [2]: 3.77 nM
koff [2]: 0.026 s⁻¹
kon [2]: 6.89e+06 M⁻¹ s⁻¹
B13: hu9F5VHv10/hu9F5VLv9_DIM10 (antibody, V domains shown)
VH: B6 VH with Q38K, G42E
VL: B6 VL with I42Q, I56K, R59G, N65D

Kd [2]: 1.47 nM
koff [2]: 0.00395 s⁻¹
kon [2]: 2.69e+06 M⁻¹ s⁻¹
B14: hu9F5VHv10/hu9F5VLv9_DIM1 (antibody, V domains shown)
VH: B6 VH with Q38K, G42E
VL: B6 VL with I42Q, I56G, R59G, N65D

Kd [2]: 0.859 nM
koff [2]: 0.00232 s⁻¹
kon [2]: 2.71e+06 M⁻¹ s⁻¹
B15: hu9F5VHv10/hu9F5VLv9_DIM8 (antibody, V domains shown)
VH: B6 VH with Q38K, G42E
VL: B6 VL with S30G, I42Q, I56K, N65D

Kd [2]: 9.62 nM
koff [2]: 0.0334 s⁻¹
kon [2]: 3.47e+06 M⁻¹ s⁻¹
B16: hu9F5VHv10/hu9F5VLv9_DIM20 (antibody, V domains shown)
VH: B6 VH with Q38K, G42E
VL: B6 VL with I42Q, R59G, N65D

Kd [2]: 1.24 nM
koff [2]: 0.0832 s⁻¹
kon [2]: 6.69e+07 M⁻¹ s⁻¹
B17: hu9F5VHv9/hu9F5VLv8_DIM23 (antibody, V domains shown)
VH: B6 VH
VL: B6 VL with S30G, I42Q, I56E, R59G

Kd [2]: 858 nM
koff [2]: 1.12 s⁻¹
kon [2]: 1.31e+06 M⁻¹ s⁻¹
B18: hu9F5VHv9/hu9F5VLv8_DIM21 (antibody, V domains shown)
VH: B6 VH
VL: B6 VL with I42Q, R59G, I97L

Kd [2]: 3.15 nM
koff [2]: 0.0409 s⁻¹
kon [2]: 1.3e+07 M⁻¹ s⁻¹
B19: hu9F5VHv9/hu9F5VLv8_DIM25 (antibody, V domains shown)
VH: B6 VH
VL: B6 VL with S30G, I56E, I97G

Kd [2]: 1.97 nM
koff [2]: 0.00688 s⁻¹
kon [2]: 3.49e+06 M⁻¹ s⁻¹
B20: hu9F5VHv10/hu9F5VLv9_DIM19 (antibody, V domains shown)
VH: B6 VH with Q38K, G42E
VL: B6 VL with N65D

Kd [2]: 0.16 nM
koff [2]: 0.000385 s⁻¹
kon [2]: 2.41e+06 M⁻¹ s⁻¹
B21: hu9F5VHv9/hu9F5VLv8_DIM27 (antibody, V domains shown)
VH: B6 VH
VL: B6 VL with S30L, I42Q, I56G

Kd [2]: 0.39 nM
koff [2]: 0.000878 s⁻¹
kon [2]: 2.25e+06 M⁻¹ s⁻¹
B22: hu9F5VHv9/hu9F5VLv8_DIM22 (antibody, V domains shown)
VH: B6 VH
VL: B6 VL with I42Q, I56E

Kd [2]: 0.542 nM
koff [2]: 0.000919 s⁻¹
kon [2]: 1.7e+06 M⁻¹ s⁻¹
B23: hu9F5VHv10/hu9F5VLv9_DIM5 (antibody, V domains shown)
VH: B6 VH with Q38K, G42E
VL: B6 VL with S30G, I42Q, I56G, N65D

Kd [2]: 1.74 nM
koff [2]: 0.00439 s⁻¹
kon [2]: 2.53e+06 M⁻¹ s⁻¹
B24: hu9F5VHv10/hu9F5VLv9_DIM4 (antibody, V domains shown)
VH: B6 VH with Q38K, G42E
VL: B6 VL with I42Q, I56G, N65D, I97G

Kd [2]: 0.679 nM
koff [2]: 0.00184 s⁻¹
kon [2]: 2.72e+06 M⁻¹ s⁻¹
B25: hu9F5VHv10/hu9F5VLv9_DIM2 (antibody, V domains shown)
VH: B6 VH with Q38K, G42E
VL: B6 VL with I42Q, I56G, N65D

Kd [2]: 12.3 nM
koff [2]: 0.0694 s⁻¹
kon [2]: 5.64e+06 M⁻¹ s⁻¹
B26: hu9F5VHv9/hu9F5VLv8_DIM20 (antibody, V domains shown)
VH: B6 VH
VL: B6 VL with I42Q, R59G

Kd [2]: 1.04 nM
koff [2]: 0.004 s⁻¹
kon [2]: 3.84e+06 M⁻¹ s⁻¹
B27: hu9F5VHv9/hu9F5VLv8_DIM26 (antibody, V domains shown)
VH: B6 VH
VL: B6 VL with S30I, I56E, I97L
